Biological target: T1, human Derlin-1 (hDERL1), full length, purified from Expi293F cells (human), Q9BUN8
T1 chain: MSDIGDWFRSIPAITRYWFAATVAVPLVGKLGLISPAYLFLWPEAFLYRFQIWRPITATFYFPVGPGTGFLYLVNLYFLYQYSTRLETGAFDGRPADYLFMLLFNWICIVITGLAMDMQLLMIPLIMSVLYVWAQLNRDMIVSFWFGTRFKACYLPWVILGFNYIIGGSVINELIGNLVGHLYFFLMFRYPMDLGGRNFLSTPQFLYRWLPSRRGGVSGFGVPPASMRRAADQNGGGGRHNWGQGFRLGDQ
Assay: cryo-EM structure
Settings: remark: other sources report otherwise

B1: human Derlin-1 (hDERL1), full length, purified from Expi293F cells, Q9BUN8-1 1-251 (natural protein)
chain: MSDIGDWFRSIPAITRYWFAATVAVPLVGKLGLISPAYLFLWPEAFLYRFQIWRPITATFYFPVGPGTGFLYLVNLYFLYQYSTRLETGAFDGRPADYLFMLLFNWICIVITGLAMDMQLLMIPLIMSVLYVWAQLNRDMIVSFWFGTRFKACYLPWVILGFNYIIGGSVINELIGNLVGHLYFFLMFRYPMDLGGRNFLSTPQFLYRWLPSRRGGVSGFGVPPASMRRAADQNGGGGRHNWGQGFRLGDQ
With B1 the stoichiometry N was 4.

Source: PMC7929502
